Measurements reported in patent US20060148057A1, “Thioredoxin mutants and uses thereof” (priority 2002, published 2006).

Legend:
ASK1 = experiment: Association of Trx with ASK1 in vivo in BAEC (co-immunoprecipitation); format: binding, Bovine; conditions: for association of Flag-Trx with HA-ASK1 after TNF treatment: TNF 10 ng/ml for 15 min; for binding of Flag-Trx to HA-ASK1: resting EC, co-immunoprecipitation
Protocol: Immunoprecipitation and immunoblotting EC after various treatments were washed twice with cold PBS and lysed in 1.5 ml of cold lysis buffer (50 mM Tris-HC, pH 7.6, 150 mM NaCl, 0.1% Triton X-100, 0.75% Brij 96, 10 μg/ml aprotinin, 10 μg/ml leupeptin, 2 mM PMSF, 1 mM EDTA) for 20 min on ice. Protein concentrations were determined with a Bio-Rad kit. For immunoprecipitation to analyze protein interaction in vivo, 400 μg of cell lysate supematant were incubated with 5 μg of the first protein-specific antiserum (e.g. anti-Trx from Medical & Biological Laboratory) for 2 h with 50 μl of GammaBind plus Sepharose. Immune complexes were collected after each immunoprecipitation by centrifugation at 14,000× g for 10 min followed by 4 washes with lysis buffer. The immune complexes were subjected to Western blot with the second protein (e.g., ASK1)-specific antibody (Santa Cruz Biotech, Santa Cruz, Calif.). The chemiluminescence was detected using an ECL kit according to the instructions of the manufacturer (Amersham Life Science, Arlington Heights, Ill.). For Flag-tagged and HA-tagged proteins, anti-Flag M2 antibody (Sigma) and anti-HA antibody (Roche Diagnostics) were used, respectively.
TNF dissociates wild type Trx but not Trx-C32S or Trx-C35Sfroin ASK1 in vivo. Trx-C32S and Trx-C35S were examiner to determine whether they constitutively bind to ASK1 in vivo. Regulation of ASK1 by Trx was first examined to determine if such regulation is ROS-dependent in EC. BAEC were either untreated or treated with N-acetyl-cysteine (Nac, 1 mM) or vehicle for 60 min prior to TNF-α (10 ng/ml) stimulation for 15 min. TNF-induced ASK1 activation was measured by an in vitro kinase assay using GST-MKK4 (JNKK1) fusion protein as a substrate. TNF activated ASK1 in EC (FIG. 5A). […] Association of ASK1 with Trx was easily detected in untreated EC cells (FIG. 5B, Ctrl). […] In contrast, Nac pretreatment prevented TNF-induced dissociation of ASK1 from Trx. Similar results were obtained in human EC (HUVEC).
To examine association of Trx mutants with ASK1 in vivo, the Flag-tagged Trx construct (WT, CS, C32S or C35S) was co-transfected with HA-ASK1 into BAEC and the interaction of these Trx proteins with ASK1 were examined by co-immunoprecipitation assay. As expected, Trx-WT, Trx-C32S and Trx-Trx-C35S (but not Trx-CS) bound to ASK1 in resting EC (FIG. 5C).

Akt = experiment: ASK1-induced inhibition of IGF1-induced Akt phosphorylation in EC (Western blot p-Ser473); format: cell-based, Bovine; conditions: co-expression with ASK1, IGF1 10 ng/ml for 10 min
Protocol: EC were transfected with plasmids as indicated: control vector (VC), HA-Akt, HA-ASK1 with different Trx constructs. Cells were treated with IGF1 (10 ng/ml for 10 min). Akt hosphorylation was examined by western blot with phospho-Akt (Ser473)-specific antibody (p-Akt). Akt and ASK1 expression were determined by western blot with anti-HA.
To determine a role of ASK1 in ROS/TNF-induced IR (impairment of insulin/IGF1 signaling) in EC, the effects of ASK1 activation on IGF1-induced phosphorylation of IRS-1, Akt and eNOS activity were examined. IGF-1 was chosen because cultured EC express IGF1 receptor at higher level than that of insulin receptor. BAEC were transfected with VC or ASK1 expression construct, cells were treated with IGF1 (10 ng/ml) for indicated time. SOCS3 was used as a control which has been shown as a suppressor of IRS-1 activation. Activation (tyrosine phosphorylation) of IRS-1 was determined by IP/Western blot with anti-phosphotyrosine. Akt phosphorylation at Ser-473, a hallmarker for Atk activity was determined by Western blot with p-Ser473-specific antibody. The eNOS enzymatic activity was also by an enzymatic assay based on the conversion of 3H-L-arginine to 3H-citrulline (Calbiochem, Nitric Oxide Synthase Assay Kit).
To determine if Trx protects ASK1-induced inhibition on IGF1 signaling, Trx and ASK1 were coexpressed as in the above experiments. […] To test this, the effects of TZDs (insulin-sensitizers) and statins on ASK1 activity were tested. […] Inhibition of ASK1 may due to their anti-oxidant activities of these drugs which may be indirect by inhibiting TNF-dependent generation of ROS.

Chain of ASK1 (Q99683 whole entry): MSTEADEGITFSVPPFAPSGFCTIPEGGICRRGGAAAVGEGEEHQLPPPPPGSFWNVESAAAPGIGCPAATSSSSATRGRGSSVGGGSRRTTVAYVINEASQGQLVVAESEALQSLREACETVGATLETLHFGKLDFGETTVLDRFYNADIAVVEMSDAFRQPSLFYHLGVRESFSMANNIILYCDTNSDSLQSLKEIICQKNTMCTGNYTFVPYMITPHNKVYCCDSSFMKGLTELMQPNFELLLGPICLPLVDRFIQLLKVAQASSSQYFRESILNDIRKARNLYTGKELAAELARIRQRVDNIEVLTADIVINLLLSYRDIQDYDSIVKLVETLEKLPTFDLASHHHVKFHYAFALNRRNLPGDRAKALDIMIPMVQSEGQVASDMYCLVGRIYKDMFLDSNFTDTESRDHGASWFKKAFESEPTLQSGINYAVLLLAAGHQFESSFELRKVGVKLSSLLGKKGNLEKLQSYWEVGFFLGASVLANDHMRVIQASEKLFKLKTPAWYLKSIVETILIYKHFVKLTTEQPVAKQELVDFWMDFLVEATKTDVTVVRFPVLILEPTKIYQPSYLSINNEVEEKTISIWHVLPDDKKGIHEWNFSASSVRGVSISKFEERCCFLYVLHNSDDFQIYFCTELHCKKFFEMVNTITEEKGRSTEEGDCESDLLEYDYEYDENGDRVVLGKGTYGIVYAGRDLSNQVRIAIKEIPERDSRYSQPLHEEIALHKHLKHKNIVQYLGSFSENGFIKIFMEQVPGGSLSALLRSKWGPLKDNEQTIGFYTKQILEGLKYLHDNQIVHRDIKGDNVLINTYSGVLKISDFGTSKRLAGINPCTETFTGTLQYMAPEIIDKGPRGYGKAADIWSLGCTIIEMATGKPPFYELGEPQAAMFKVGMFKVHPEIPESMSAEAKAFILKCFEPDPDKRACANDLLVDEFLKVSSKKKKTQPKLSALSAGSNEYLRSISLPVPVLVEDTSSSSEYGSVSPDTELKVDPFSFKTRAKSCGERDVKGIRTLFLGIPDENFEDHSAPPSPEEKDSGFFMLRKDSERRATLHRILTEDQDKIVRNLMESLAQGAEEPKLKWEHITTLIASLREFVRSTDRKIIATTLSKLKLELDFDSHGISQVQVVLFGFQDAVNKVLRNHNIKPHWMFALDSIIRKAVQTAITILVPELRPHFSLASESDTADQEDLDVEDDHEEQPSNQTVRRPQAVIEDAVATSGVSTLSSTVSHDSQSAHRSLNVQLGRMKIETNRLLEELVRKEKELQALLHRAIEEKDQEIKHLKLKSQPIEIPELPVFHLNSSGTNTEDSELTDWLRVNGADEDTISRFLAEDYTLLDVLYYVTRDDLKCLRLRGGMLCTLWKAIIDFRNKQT

| Molecule | association of Flag-Trx with HA-ASK1 after TNF treatment (ASK1) | binding of Flag-Trx to HA-ASK1 (ASK1) | ASK1-induced reduction of Akt phosphorylation (Akt) |
| --- | --- | --- | --- |
| thioredoxin (protein, Flag tag or GST fusion, Flag-tagged or GST fusion) MVKQIESKTAFQEALDAAGDKLVVVDFSATWCGPCKMIKPFFHSLSEKYSNVIFLEVDVDDCQDVASECEVKCMPTFQFFKKGQKVGEFSGANKEKLEATINELV | completely dissociated | bound to ASK1 | prevents |
| Trx-C32S: C32S single mutant of Trx at the catalytic site, SEQ ID NO:2 (protein) MVKQIESKTAFQEALDAAGDKLVVVDFSATWSGPCKMIKPFFHSLSEKYSNVIFLEVDVDDCQDVASECEVKCMPTFQFFKKGQKVGEFSGANKEKLEATINELV | not reduced | bound to ASK1 | prevents |
| Trx-C35S: C35S single mutant of Trx at the catalytic site, SEQ ID NO:3 (protein) MVKQIESKTAFQEALDAAGDKLVVVDFSATWCGPSKMIKPFFHSLSEKYSNVIFLEVDVDDCQDVASECEVKCMPTFQFFKKGQKVGEFSGANKEKLEATINELV | not reduced | bound to ASK1 | prevents |
